Target: the molecule itself
Experiment: cryo-EM structure; CPMV eVLP purified from N. benthamiana leaves, ~4.2 mg/ml on the grid; single particles, icosahedral symmetry imposed; 3.04 Å; atomic model built de novo

B1: Cowpea mosaic virus Small (S) coat protein with its C-terminal extension, in the empty virus-like particle (eVLP) (natural protein)
chain: GPVCAEASDVYSPCMIASTPPAPFSDVTAVTFDLINGKITPVGDDNWNTHIYNPPIMNVLRTAAWKSGTIHVQLNVRGAGVKRADWDGQVFVYLRQSMNPESYDARTFVISQPGSAMLNFSFDIIGPNSGFEFAESPWANQTTWYLECVATNPRQIQQFEVNMRFDPNFRVAGNILMPPFPLSTETPPLLKFRFRDIERSKRSVMVGHTATAA
notes: Small (S) coat protein of cowpea mosaic virus, cut from the RNA-2-encoded precursor VP60 by the 24K proteinase; C-terminal 24 amino acids (190-213) kept; modelled up to Arg202, without 184-189; numbers count on: the S subunit; the particles imaged kept it; also called S subunit; small coat protein; source: N. benthamiana, agroinfiltrated with pEAQ-HT-VP60 and pEAQ-HT-24K or pEAQexpress-VP60-24K; …
With B1 as the protein, how does the “stoichiometry N” value read?
The value was 5.

— PMC4682053, “Mechanisms of assembly and genome packaging in an RNA virus revealed by high-resolution cryo-EM” (Nature Communications, 2015)
